The series can be described thus: yeast display, Sf9 membrane polyspecificity reagent, FACS + sequencing; frameworks hold sequencing errors. Put shortly:
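Using colony PCR, genes from sorted yeast display clones were amplified, then sequenced on MiSeq at 2 × 250 and filtered by CDR length. The clones had been stained with 10% biotinylated, detergent-solubilized Sf9 membrane reagent for 1 hour at 4 °C and sorted by FACS into low and high (top ~1%) gates on anti-HA and streptavidin fluorescence. Polyreactivity labels come from the gate of origin.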
Take “QVQLVESGGGLVQAGGSLRLSCAASGSIFLVNAMGWYRQAPGKERELVASITWRGGRTYYADSVKGRFTISRDNAKNTVYLEMNSLKPEDTAVYYCAARNYRTGERLRYDYWGQGTQVTVSS”: the “polyreactivity (PSR sort gate)” value is recorded as “low polyreactivity”. To “QVQLVESGGGLDQAGGSLRLSCAPSGSTFVGYALGWYRQAPGKERELVAAITRGGGSTYYADSVKGRFTISRDNAKNTVYLQMNSLKPEDTAVYYCAAYQHPGLRTSYEYWGQGTQVTVSS” belongs “low polyreactivity”; to “HVQLVESGGGLVQAGGSLRISCAASGRTFYSYVMGWYRQAPGKQRQLVAAISSGGGRTYYADSVKGRFTISRDNAKHTVYLQMNSLKPEDTAVYYCNAVTRGTRWGLPYEYWGQGTQVTVSS”, “high polyreactivity”. Consider “QVQLVESGGGLVQAGGSLRLSCAASGRIFSRYAMGWYRQAPGKERELVAAISWSGGSTYYADSVKGRFTISRDKAKNTVYLQMNSLKPEDTAVYYCAAKRQYTEYNYWGQGTQVTVSS”, for which the “polyreactivity (PSR sort gate)” value is “high polyreactivity”. Regarding “QVQLVESGGGFVQAGGSLRLSCAASGFIFRVYAMGWYRPAPGKERELVAAISKRGGSTFYADSVKGRFTISRDNANNTVYLQMNSLKPEDTAVYDCAASARLGYDYWGQGTQVTVSS”, the “polyreactivity (PSR sort gate)” value is reported as “high polyreactivity”. Turning to “VQLVESGGGLVQAGVSLRLSCAASGSTFRPYAMGWYRQAPGKERELVAAITGSGGSTYYADSVKGRFTISRDNAKNTVYLQMNSLKPEDTAVYYCNAVSTWRYYYWGQGTQVTVSS”, the “polyreactivity (PSR sort gate)” value is on record as “high polyreactivity”. For “QVQLVESGGGLVQAGGSLRLSCAASGRTFKYYAMGWYRQAPGKERELVAAISWSGSSTNYADSVKGRFTISRDNAKNTVYLQMNSLKPEDTAVYYCAAATYRQFTGTYDYWGQGTQVTVSS”, the “polyreactivity (PSR sort gate)” value is “high polyreactivity”. Next, “QVQLVESGGGLVQAGGSLRLRCAASGITFRYYAMGWYRQAPGQERELVAAITRSGSTTYADSVKGRFTISRDNAKNTVYLQLNSLKPEDTAVYYCAVDYYYLTGGVDYWGQGTQVTVSS”: “low polyreactivity”; “QVQLVESGGGLVQAGGSLRLSCAASGRTFYFNTMGWDRPAPGKERELVAAIDERGDSTYYADSVKGRFTISRDNAKNTVYLQMNSLKPEDTAVYYCATDWTLEVYYGRYIAKYEYGSWGQGTQVTVSS”: “low polyreactivity”; “QVQLVESGGGLVQAGGSLRLSCAASGYILYANTMGWYRQAPGKERELVAAISGGGSTNYADSVKGRFTISRDNAKNTVYLQMNSLKPEDTAVYYCAVKTNQAGYDYWGQGTQVTVSS”: “low polyreactivity”. Take “QVQLVESGGGLVQAGGSLRLSCAASGFIFRYYTMGWYRQAPGKERELVAVITSGGTTYYADSVKGRFTISRDNAKNTVYLQMNSLKPEDTAVYYCAADTFYIYEDVLYVQGDYYWGQGTQVTVSS”: the “polyreactivity (PSR sort gate)” value is listed as “low polyreactivity”. To “QVQLVESGGGLVQAGGSLRLSCAASGSIFAEYAMGWYRQAPGKERELVAAINGGGSTYYADSVKGRFTISRDNAKNTVYLEMNSLKPEDTAVYYCAAEKYTSWYSFWGYLYDYWGQGTQVTVSS” belongs “high polyreactivity”; to “QVQLVESGGGLVQAGGSLRLSCAASGGIFTKNAMGWYRQAPGKERELVAGISRTGGNTYYADSVKGRFTISRDNAKNTVYLQMNSLKPEDSAVYYCAAGRYYAVWQSISGFDSWGQGTQVTVSS”, “low polyreactivity”; to “QVQLVESGGGLVQAGGSLRLSCAASGFIFRNYALGWYRQAPGTERELVAAITGRGTSTYYADSVKGRFTISRDNAKNTVYLQMNSLKPEDTAVYYCAARSLALVYRKYDYWGQGTQVTVSS”, “high polyreactivity”. Next, “QVQLVESGGGLVQAGGSLRLSCAASGSIFGNNAMGWYRKAPGKERELVAAISSGGSTKYADSVKGRFTISRDNAKNTVYLQMNSLKPEDTAVYYCAKDSWSRAYSWATRVHWRYDYWGQGTQVTVSS”: “low polyreactivity”; “QVQLVESGGGLLQAGGSLRLSCAASGSTIWSYAMGWYRQAPGKERELVASITWSGGSTYADSVKGRFTISRDNAKNTVYLQMNSLKPEDTAVYYCAADRGSYPDTGDYWGHGTQVTVSS”: “low polyreactivity”; “QVQLVESGGGLVQAGGSLRLSCAASGNIFGGNAMGWYRQAPGKERELVAAMTRGGSTYYADSVKGRFTISRDNAKNTVYLQMNSLKPEATAVYYCAKSYRLRSDYDYWGQGTQVTVSS”: “low polyreactivity”. Next, “QDQLVESGGGLVQAGGSLRLSCAASGITLFYYAMGWYRQAPGKERELVAVISASGGSTYYADSVKGRFTISRDNAKNTVYLQMNSLKQEDTAVYYCAAVAYWRSSSWYYYWGLGTQVTVSS”: “high polyreactivity”; “QVQLVESGGGLVQAGGSLRLSCAASGSTFGDYAMGWYRQAPGKERELVAAISRSAGSTYYADSVKGRFTISRDNAKNTVYLQMNSLKPEDTAVYYCAAEYQYHWAYIYYYWGQGTQVTVSS”: “high polyreactivity”; “QVQLVESGGGLVQAGGSLRLSCAPSGRIFQYYTMGWSRQAPGKDRELVATISRRGGRTYYADSVKGRFTISRDNAKNTVYLQKNSLKPEDTAVYYCAARTYSYEYDYWGQGTQVTVSS”: “high polyreactivity”. As for “QVQLVESGGGLVQAGGSLRISCAPSGSTFPHNAMGWYRQAPGKERELVAAISSIGVRTYYADSVKGRFTISRDNAKNTVYLQMNSLKPEDTAVYYCAAEYDGPYTWVEYYYHYGYWGQGTQVTVSS”, the “polyreactivity (PSR sort gate)” value was “high polyreactivity”. Next, “QVQLVESGAGLVQARGSLRLSCAASGRIFYQYAMGWYRQAPGKERELVAAISWNGGRTYYADSVKGRFTISRDNAKNTVYLQMNSLKPEDTAVYYCAASFTGYSRDRYGYWGQGTQVTVSS”: “high polyreactivity”. To “QVQLVESGGGLVQAGGSLRLSCAASGRTCWSYAMGWYRQAPGKEREVVATITGRGGSTYYADSVKGRFTISRDNAKNTVYLQRNSLKPEDTAVYYCAVRSKYRRTFGSWGQGTQVTVSS” belongs “high polyreactivity”. As to “QVQLQESGGGLVQAGGSLRLSCAASCTISQEDWMGWYRQAPGKELEFVAAIGLGSNTNYADSLKGRFTISRDNAKNTVYLQMNSLKPEDTAVYYCAVSVWQYSDHVYRGQGTQVTVSS”, the “polyreactivity (PSR sort gate)” value is listed as “low polyreactivity”. Next, “QVQLVESGGGLVQAGGSLRLSCAASGGTFSYYAMGWYRQARGKERELDAAISGNGDTTYYADSVKGRFTISRDNAKNTVYLQMNSLKPEDTAVYYCAADGWGFIVGIDYYPYGEGDYWGQGTQVTVSS”: “low polyreactivity”.

In the case of “QVQHEESGGGLVQAGGSLRLSCAASGYTFSFYAMGWSRQAPGKERELVAAISSSDGTTYYADSVKGRFTISRDNAKNTVYLQMNSLKPQDTAVYYCNTRYVRQVVGTYTLKTRYYWGQGTQVTVSS”, the “polyreactivity (PSR sort gate)” value is reported as “high polyreactivity”. Next, “QVQLVESGGGLVQAGGSLRLSCAASGSIFPQYAMGWYRQAPGTERELVAAISSSGGRTYYADSVKGRFTISRDNAKYTVYLQMNSLKPEDTAVYYCITRWRSRYGYGDQSEDYWGQGTQVTVSS”: “high polyreactivity”; “QVQLVESGGGLVQAGGSLRLSCAASGRTFKINAMGWYRQAPGKERELVAAIRRRGGSTYYADSVKGRFTISRDNAKNTVYLQMNSLKPEDTAVYYCAKTSWPYRVPSDSVAYDYWGQGTQVTVSS”: “low polyreactivity”; “QVQLVESGGGLVQAGGSLRIICAASGRTFSYYAMGWYRQAPGKERELVAAITAGGNTYYADSVKGRFTISRDNAKNTVYLQMNSLKAEDTAVYYCAATYYWAWGGVYHSEFDYWGQGTQETVSS”: “low polyreactivity”. To “QVQLVESGGGLVQAGGSLRLSCAASGSIFWGNAMGWYRQAPGKERELVAAITSGGSTNYADSVKGRFTISRDNAKNTVYLQMNSLKPEDTAVYYCIADVARVPFEFDYWGQGTQVTVSS” belongs “low polyreactivity”.
